Data: US20060153775A1
Blank lines part the entries; values can stand above or below the substance they belong to.

What was measured:
[1] = target: binding target for TKPPR on HAEC (human aortic endothelial cells); assay: fluorescent beads on confluent HAEC, static 30 min, image analysis
[2] = target: binding target for TKPPR on HAEC (human aortic endothelial cells); assay: competition of 2% D47 bubble binding to HAEC; VEGF121 100 ng/mL
[3] = target: binding target for TKPPR on HAEC (human aortic endothelial cells); assay: competition of 2% D47 bubble binding to HAEC; VEGF121 200 ng/mL
[4] = target: binding target for TKPPR on HAEC (human aortic endothelial cells); assay: competition of 2% D47 bubble binding to HAEC; VEGF121 400 ng/mL
[5] = target: binding target for TKPPR on HAEC (human aortic endothelial cells); assay: competition of 5% composition bubble binding to HAEC
[6] = target: binding target for TKPPR on HAEC (human aortic endothelial cells); assay: competition of 2% D47 bubble binding to HAEC; VEGF165 25 ng/mL
[7] = target: binding target for TKPPR on HAEC (human aortic endothelial cells); assay: competition of 2% D47 bubble binding to HAEC; VEGF165 100 ng/mL
[8] = target: binding target for TKPPR on HAEC (human aortic endothelial cells); assay: competition of 5% composition bubble binding to HAEC; VEGF165 25 ng/mL
[9] = target: binding target for TKPPR on HAEC (human aortic endothelial cells); assay: competition of 5% composition bubble binding to HAEC; VEGF165 50 ng/mL
[10] = target: binding target for TKPPR on HAEC (human aortic endothelial cells); assay: competition of 5% composition bubble binding to HAEC; VEGF165 75 ng/mL
[11] = target: binding target for TKPPR on HAEC (human aortic endothelial cells); assay: competition of 5% composition bubble binding to HAEC; VEGF165 12.5 ng/mL
[12] = target: binding target for TKPPR on HAEC (human aortic endothelial cells); assay: competition of 5% composition bubble binding to HAEC; VEGF165 6.25 ng/mL
[13] = target: binding target for TKPPR on HAEC (human aortic endothelial cells); assay: competition of 5% composition bubble binding to HAEC; KDR/Fc 125 ng/mL
[14] = target: binding target for TKPPR on HAEC (human aortic endothelial cells); assay: competition of 5% composition bubble binding to HAEC; KDR/Fc 250 ng/mL
[15] = target: binding target for TKPPR on HAEC (human aortic endothelial cells); assay: competition of 5% composition bubble binding to HAEC; KDR/Fc 500 ng/mL
[16] = target: binding target for TKPPR on HAEC (human aortic endothelial cells); assay: competition of 5% composition bubble binding to HAEC; KDR/Fc 1000 ng/mL
[17] = target: binding target for TKPPR on HAEC (human aortic endothelial cells); assay: competition of 5% composition bubble binding to HAEC; KDR/Fc 2500 ng/mL

soluble human KDR/Fc chimera (R&D Systems Inc.), sequence (P35968 20-764, change not shown): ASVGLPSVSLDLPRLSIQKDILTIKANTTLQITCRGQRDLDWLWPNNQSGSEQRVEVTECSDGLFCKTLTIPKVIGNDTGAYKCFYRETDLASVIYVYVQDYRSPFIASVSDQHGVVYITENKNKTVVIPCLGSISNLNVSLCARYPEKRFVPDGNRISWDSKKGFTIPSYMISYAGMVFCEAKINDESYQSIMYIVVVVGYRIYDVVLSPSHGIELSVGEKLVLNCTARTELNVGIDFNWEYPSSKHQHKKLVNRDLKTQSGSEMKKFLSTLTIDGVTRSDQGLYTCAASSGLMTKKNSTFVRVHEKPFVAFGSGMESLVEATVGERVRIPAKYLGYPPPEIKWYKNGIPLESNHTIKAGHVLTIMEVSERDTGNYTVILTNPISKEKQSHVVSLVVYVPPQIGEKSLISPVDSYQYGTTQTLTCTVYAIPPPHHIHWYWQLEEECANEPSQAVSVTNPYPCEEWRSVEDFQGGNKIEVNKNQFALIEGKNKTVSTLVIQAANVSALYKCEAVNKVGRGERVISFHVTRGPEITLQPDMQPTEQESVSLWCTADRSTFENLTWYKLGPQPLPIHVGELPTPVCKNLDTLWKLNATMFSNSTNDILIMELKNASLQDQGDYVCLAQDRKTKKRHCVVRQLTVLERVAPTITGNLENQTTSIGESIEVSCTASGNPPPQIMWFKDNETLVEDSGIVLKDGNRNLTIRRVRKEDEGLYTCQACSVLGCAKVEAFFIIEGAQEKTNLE

Integrated density of bound beads (arbitrary units) [1]: 1.61
Substance: BSA-conjugated fluorescent microspheres (from UniProt P02769 25-607)

Bubbles Bound in presence of competitor [2]: 878 bubbles
Bubbles Bound in presence of competitor [3]: 849 bubbles
Bubbles Bound in presence of competitor [4]: 778 bubbles
Substance: VEGF121 (from UniProt P15692 27-147) (ligand)

IC50 [5]: 0.0125 µg/mL
Bubbles Bound in presence of competitor [6]: 144 bubbles
Bubbles Bound in presence of competitor [7]: 94 bubbles
Bubbles Bound in presence of competitor [8]: 342 bubbles
Bubbles Bound in presence of competitor [9]: 226 bubbles
Bubbles Bound in presence of competitor [10]: 190 bubbles
Bubbles Bound in presence of competitor [11]: 599 bubbles
Bubbles Bound in presence of competitor [12]: 1180 bubbles
Substance: VEGF165 (from UniProt P15692 27-191) (ligand)

Bubbles Bound in presence of competitor [13]: 1030 bubbles
Bubbles Bound in presence of competitor [14]: 786 bubbles
Bubbles Bound in presence of competitor [15]: 342 bubbles
Bubbles Bound in presence of competitor [16]: 75 bubbles
Bubbles Bound in presence of competitor [17]: 84 bubbles
Substance: soluble human KDR/Fc chimera (R&D Systems Inc.) (from UniProt P35968 20-764) (Fc fusion)
